Test results: patent US20090317397A1 (published 2009)
Numbering of substitutions follows the chain as printed.

T1: B7 antigen (B7-1) stably expressed on CHO cells (UniProt P33681 35-288, limits assumed)
T1 construct: whole, on cells; also called B7+CHO cells; B7 positive CHO cells
T1 sequence (looked up): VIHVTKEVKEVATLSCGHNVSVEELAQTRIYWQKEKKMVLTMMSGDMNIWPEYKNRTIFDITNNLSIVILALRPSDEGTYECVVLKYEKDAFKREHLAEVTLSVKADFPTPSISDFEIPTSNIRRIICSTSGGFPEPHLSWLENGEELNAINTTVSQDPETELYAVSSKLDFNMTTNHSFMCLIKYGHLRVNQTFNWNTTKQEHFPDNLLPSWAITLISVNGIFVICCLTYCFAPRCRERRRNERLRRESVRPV

B1: CTLA4/CD28Ig hybrid fusion protein HS4 (Fc fusion)
chain: NKILVKQSPMLVAYDNAVNLSCKYSYNLFSREFRASLHKGLDSAVEVCVVYGNYSQQLQVYSKTGFNCDGKLGNESVTFYLQNLYVNQTDIYFCKIELMYPPPYYLGIGNGTQIYVIDPEPCPD
notes: range 1-96; also called the CD28Ig analog; not shown: human IgG1 hinge (Cys to Ser), CH2, CH3; junction printed as DQE
B2: CTLA4/CD28Ig hybrid fusion protein HS4-A (Fc fusion)
chain: B1 chain with Y115H, I117K, D118G, P119K, E120H, P121L, D124S
notes: not shown: human IgG1 hinge (Cys to Ser), CH2, CH3; junction printed as DQE
B3: CTLA4/CD28Ig hybrid fusion protein HS7 (Fc fusion)
chain: B1 chain with S25A, Y26S, N27P, L28G, F29K, S30A, R31T
notes: range 1-24;range 33-96; not shown: human IgG1 hinge (Cys to Ser), CH2, CH3; junction printed as DQE
B4: CTLA4/CD28Ig hybrid fusion protein HS10 (Fc fusion)
chain: B1 chain with V50A, Y51T, G52Y, N53M, Y54M, S55G, Q56N, Q57E
notes: range 1-49;range 58-96; not shown: human IgG1 hinge (Cys to Ser), CH2, CH3; junction printed as DQE
B5: CTLA4/CD28Ig hybrid fusion protein HS8 (Fc fusion)
chain: NKILVKQSPMLVAYDNAVNLSCKYASPGKATEFRASLHKGLDSAVEVCVVYGNYSQQLQVYSKTGFNCDGKLGNESVTFYLQNLYVNQTDIYFCKIELMYPPPYYLGIGNGTQIHVKGKHLCPS
notes: as for B2
B6: CTLA4/CD28Ig hybrid fusion protein HS2 (Fc fusion)
chain: AMHVAQPAVVLASSRGIASFVCKYSYNLFSREFRASLHKGLDSAVEVCVVYGNYSQQLQVYSKTGFNCDGKLGNESVTFYLQNLYVNQTDIYFCKIELMYPPPYYLGIGNGTQIYVIDPEPCPDSD
notes: range 23-96; not shown: human IgG1 hinge (Cys to Ser), CH2, CH3; junction printed as DQE
B7: CTLA4/CD28Ig hybrid fusion protein HS12 (Fc fusion)
chain: NKILVKQSPMLVAYDNAVNLSCKYSYNLFSREFRASLHKGLDSAVEVCVATYMMGNELQVYSKTGFNCDGKLGNESVTFYLQNLYVNQTDIYFCKIELMYPPPYYLGIGNGTQIHVKGKHLCPS
notes: as for B2
B8: CTLA4/CD28Ig hybrid fusion protein HS6 (Fc fusion)
chain: AMHVAQPAVVLASSRGIASFVCEYSYNLFSREVRVTVLRQADSQVTEVCAATYMMGNELTFLDDSICTGTSSGNQVNLTIQGLRAMDTGLYICKVELMYPPPYYLGIGNGTQIYVIDPEPCPDSD
notes: range 25-32; not shown: human IgG1 hinge (Cys to Ser), CH2, CH3; junction printed as DQE
B9: CTLA4/CD28Ig hybrid fusion protein HS9 (Fc fusion)
chain: NKILVKQSPMLVAYDNAVNLSCKYASPGKATEFRASLHKGLDSAVEVCVVYGNYSQQLQVYSKTGFNCDGKLGNESVTFYLQNLYVNQTDIYFCKIEVMYPPPYLDNEKSNGTIIYVIDPEPCPD
notes: range 1-24;range 33-115; not shown: human IgG1 hinge (Cys to Ser), CH2, CH3; junction printed as DQE
B10: CTLA4/CD28Ig hybrid fusion protein HS4-B (Fc fusion)
chain: B9 chain with A25S, S26Y, P27N, G28L, K29F, A30S, T31R
notes: range 1-115; not shown: human IgG1 hinge (Cys to Ser), CH2, CH3; junction printed as DQE
B11: CTLA4/CD28Ig hybrid fusion protein HS5 (Fc fusion)
chain: B9 chain with Y116H, I118K, D119G, P120K, E121H, P122L, D125S
notes: CD28Ig itself runs to about 134; not shown: human IgG1 hinge (Cys to Ser), CH2, CH3; junction printed as DQE
B12: CTLA4/CD28Ig hybrid fusion protein HS11 (Fc fusion)
chain: NKILVKQSPMLVAYDNAVNLSCKYASPGKATEFRASLHKGLDSAVEVCVATYMMGNELQVYSKTGFNCDGKLGNESVTFYLQNLYVNQTDIYFCKIELMYPPPYYLGIGNGTQIYVIDPEPCPD
notes: range 1-24;range 33-49;range 58-96; not shown: human IgG1 hinge (Cys to Ser), CH2, CH3; junction printed as DQE
B13: CTLA4/CD28Ig hybrid fusion protein HS13 (Fc fusion)
chain: B12 chain with Y115H, I117K, D118G, P119K, E120H, P121L, D124S
notes: as for B2

How the values were obtained:
[1] = target: CTLA4Ig fusion protein (human) (UniProt P16410); assay: solid phase binding, 4 nM ^125I-B7Ig on immobilized CTLA4Ig
[2] = target: CTLA4Ig fusion protein (human) (UniProt P16410); assay: solid phase competition, ^125I-B7Ig (4 nM) on immobilized CTLA4Ig
[3] = target: CTLA4Ig fusion protein (human) (UniProt P16410); assay: Scatchard plot of the solid phase competition data, immobilized CTLA4Ig
[4] = target: T1, B7 antigen (B7-1) stably expressed on …; assay: cell enzyme immunoassay on fixed B7-1+ CHO cells

Molecule	binding result [4]	further results
B7Ig fusion protein (from UniProt P33681 35-241) (Fc fusion)	–	radioactivity bound to wells treated without competitor [1]: 28300 cpm; IC50 [2]: 175 nM; Kd [3]: 12 nM
B1	–	fold less binding than wild type CTLA4Ig [4]: ~5 fold; increase in binding relative to CD28Ig [4]: ~2.5 orders of magnitude
B2	–	% of wild type binding [4]: ~2%
B3	–	% binding activity relative to CTLA4Ig [4]: ~44%
B4	binds	–
B5	–	% of wild type binding [4]: ~60%
B6	binds	–
B7	binds	–
B8	binds	–
B9	binds	–
B10	binds	–
B11	binds	–
B12	binds	–
B13	binds	–
